Key:
[1] = target: Cy.009 Fab:CyRPA complex, formed beforehand and purified by SEC (Plasmodium falciparum (3D7 clone) | …, UniProt Q8IFM8 29-362); assay: SPR; TBS+P20, 1 mM CaCl2
[2] = target: Cy.004 Fab:CyRPA complex, formed beforehand and purified by SEC (Plasmodium falciparum (3D7 clone) | …, UniProt Q8IFM8 29-362); assay: SPR; TBS+P20, 1 mM CaCl2
[3] = target: T1, Cy.002 Fab:CyRPA complex, formed beforehand and purified by SEC (Plasmodium falciparum (3D7 clone) | …, UniProt Q8IFM8 29-362); assay: SPR; TBS+P20, 1 mM CaCl2
[4] = target: Cy.007 Fab:CyRPA complex, formed beforehand and purified by SEC (Plasmodium falciparum (3D7 clone) | …, UniProt Q8IFM8 29-362); assay: SPR; PBS+P20
[5] = target: Cy.003 Fab:CyRPA complex, formed beforehand and purified by SEC (Plasmodium falciparum (3D7 clone) | …, UniProt Q8IFM8 29-362); assay: SPR; PBS+P20
[6] = target: T1, Cy.002 Fab:CyRPA complex, formed …; assay: SPR; PBS+P20

Binder	Kd [1] [nM]	Kd [2] [nM]	Kd [3] [nM]	koff [3] [s⁻¹]	Kd [4] [nM]	Kd [5] [nM]	Kd [6] [nM]	koff [6] [s⁻¹]
Cy.007, chimeric anti-CyRPA monoclonal antibody (chicken variable domains, human IgG1) (antibody, V domains shown) VH: AVTLDESGGGLQTPGGTLSLVCKGSGFTFSSYEMQWVRQAPGKGLEWVADICIGGSYTGYGPAVKGRATISRDDGQSTVRLQLNNLRAEDTGTYYCAKTARSDYCITGLDDIDAWGHGTEVIVSS VL: RCALTQPSSVSANPGETVKITCSGGSSDYGWYQQKSPGSAPVTVIYENNKRPSDIPSRFSGSKFGSTHTLTITGVQADDEAVYFCGSRDTNNGAFGAGTTLTVL	2.6	1.6	11	0.0024	–	–	–	–
Cy.009, chimeric anti-CyRPA monoclonal antibody (chicken variable domains, human IgG1) (antibody, V domains shown) VH: AVTLDESGGGLQTPGGALSLVCKASGFTFSDYAMGWVRQAPGKGLEYVAGIKSDGSFTLYGSTVKGRATISRDNGQSIVRLQLNNLRAEDTGTYYCAKSDDNGGHYSDFSGEIDAWGHGTEVIVSS VL: RCALTQPSSVSANPGETVKITCSGSSYSYGWYQQKSPGSAPVTVIYYNDKRPSDIPSRFSGSKSGSTGTLTITGVQAEDEAVYFCGNSDSRNAAFGAGTTLTVL	–	–	–	–	2100	260	1500	0.17
Cy.004, chimeric anti-CyRPA monoclonal antibody (chicken variable domains, human IgG1) (antibody, V domains shown) VH: AVTLDESGGGLQTPGGALSLVCKASGFDFSSYAMGWVRQAPGKGLEYVAGIRNDGSFTLYTPAVKGRATISRDNGQSTVRLQLNNLRAEDTATYFCTKSADDGGHYSDFSGEIDAWGHGTEVIVSS VL: RCALTQPSSVSANPGETVKITCSGSTYNYGWYQQKSPGSAPVTVIYYNDKRPSDIPSRFSGSKSGSTGTLTITGVQAEDEAVYYCGNSDSRNVAFGAGTTLTVL	–	–	–	–	390	410	1800	0.39
Cy.003, chimeric anti-CyRPA monoclonal antibody (chicken variable domains, human IgG1) (antibody, V domains shown) VH: AVTLDESGGGLQTPGGALSLVCKGSGFFSFSSYTMQWVRQAPGKGLEWVASISSGGGTNYGAAVKGRATISRDNGQSTLRLQLNNLRAEDTGTYYCAKHGVNGCDWSYSVGCVDAWGHGTEVIVSS VL: RCALTQPSSVSANPGETVKITCSGGSSSYYGWYQQKSPGSAPVTLIYNNQKRPSDIPSRFSGSKSGSTGTLTITGVQAEDEAVYFCGSRDNSGGIFGAGTTLTVL	8.6	13	77	0.0048	–	–	–	–

Source: publication PMC8854392 (2022)
